From publication doi:10.64898/2026.08.21.746223
Where two headings read alike, the source gives them in different places.

Experiments:
[1] = biological target: PelC (P. aeruginosa PAO1, PA3062), outer membrane lipoprotein (Pseudomonas aeruginosa PAO1); assay: cryo-EM structure
[2] = biological target: PelC (P. aeruginosa PAO1, PA3062), outer membrane lipoprotein (Pseudomonas aeruginosa PAO1); assay: cryo-EM structure; remark: listed apart in the source

Substance: PelC (P. aeruginosa PAO1, PA3062), outer membrane lipoprotein (natural protein)
- stoichiometry N [1]: 12
- stoichiometry N [2]: 12
